These results are taken from article PMC5730196.

The term stoichiometry N denotes the number of molecules, sites or subunits per partner or assembly.

For assay [1], the target named is DREP1 CIDE domain (DFF-related protein 1), wild type (Drosophila melanogaster). Put plainly: SEC; purified proteins alone or mixed, Superdex 200 HR 10/30 in 20 mM Tris-HCl pH 8.0, 150 mM NaCl; peak fractions on SDS-PAGE. On the technique in general: In gel filtration, larger molecules generally elute earlier.
Assay [2] has as its target DREP3 CIDE domain (DFF-related protein 3), wild type (Drosophila melanogaster). Described as above.

In turn, “DREP1 CIDE domain (DFF-related protein 1), wild type (domain or fragment)” had a stoichiometry N in assay [1] of 2.
On to “DREP3 CIDE domain (DFF-related protein 3), wild type (domain or fragment)”, for which the stoichiometry N in assay [2] was determined as 2.
